Measured values from US20090035300A1 (published 2009).
Where a chain is given by its changes, count along the chain named. In names and notes the source's numbering stands.

B1: YFP fusion of the acidic region of DC-SCRIPT with both motifs mutated (L593A and L648A) (pEYFP-C1), expressed in 293 HEK cells (other)
chain: EQEEPFDASQKRRAKVPVFQSDGESAQGSHCHEEEEEDNCYEVEPYSPGLAPQSQQLCTPEDASTKSEHAPEVLEEACKEEKEDASKGEWEKRSKGDLGAEGGQE
notes: also called Ac/double mut; not shown: yellow fluorescence protein (YFP) encoded by pEYFP-C1
B2: YFP fusion of the acidic region of DC-SCRIPT with the first motif mutated (L593A) (pEYFP-C1), expressed in 293 HEK cells (other)
chain: B1 chain with A63L
notes: also called Ac/mut1; not shown: yellow fluorescence protein (YFP) encoded by pEYFP-C1

Target: FLAG-CtBP1 (full-length CtBP1 in pFLAG-CMV-2), expressed in 293 HEK cells (UniProt Q13363 1-440)
Assay: co-immunoprecipitation from transfected 293 HEK cells
Protocol: 293 HEK cells (8×10⁵) were plated in 6-well plates and transfected with 10 μl Lipofectamine 2000 (Invitrogen Life Technologies) and 1 μg of DNA. Cells were harvested one day after transfection. THP-1 cells (4×10⁶) were brought to a final volume of 0.8 ml and electroporated with 20 μg of DNA in total. Electroporation took place in a 0.2-cm cuvette (Bio-Rad) at 300 V and 960 μF. Day 6 immature human Mo-DCs were transduced with Ad5fib35hDC-SCRIPT-green fluorescence protein (GFP) at a multiplicity of infection of 1000 as described previously (Crucell, Leiden, the Netherlands) (Havenga, M J E et al. (2002) J. Virol. 76, 4612-4620.).
Whole cell lysates were prepared in 1% SDS standard lysis buffer. Equal amounts of protein were separated by SDS-PAGE electrophoresis and proteins were transferred to Protran Nitrocellulose Transfer Membrane (Schleicher and Schuell BioScience). The following primary antibodies were used; Mouse anti-GFP (0.04 μg/ml; Roche), mouse anti-myc (0.2 μg/ml; Invitrogen Life Technologies), M2 mouse anti-FLAG 1 μg/ml (Sigma-Aldrich), mouse anti-Epstein-Barr Virus (anti-EBV) mAb, BZLF1 Protein, ZEBRA, clone BZ.1 (DakoCytomation) in combination with a second HRP conjugated Goat anti-Mouse IgG (H+L) antibody (0.4 μg/ml; Pierce). Inmmunoprecipitation was performed in a standard RIPA/1% Triton X-100 buffer for 3 h at 4° C., using protein G beads. […]

Binder	binding result
B1	no binding
B2	no binding
